From patent publication US11994512B2, “Single-cell genomic methods to generate ex vivo cell systems that recapitulate in vivo biology with improved fidelity” (Massachusetts Institute of Technology, priority 2018, dated 2024) come the findings set out here.

This assay has as its system intracellular proteome of ENR+CD and ENR organoids. The experiment in a line: LC-MS/MS TMT proteomics of ENR+CD versus ENR organoids. It counts as cell-based, C57BL/6 mice. As to conditions: for Average logFC: ENR+CD versus ENR organoids, sample pairs in aggregate (n=4, 2 technical replicates from two biological donors); for M1-1 Log2 Median Normalized / M1-2 Log2 Median Normalized / M2-1 Log2 Median Normalized / M2-2 Log2 Median Normalized: protein abundance ratio ENR+CD versus ENR organoids, LC-MS/MS TMT proteomics; for M1-1 Log2 Median Normalized: sample pair M1-1; for M1-2 Log2 Median Normalized: sample pair M1-2; for M2-1 Log2 Median Normalized: sample pair M2-1; for M2-2 Log2 Median Normalized: sample pair M2-2; for change: up = enriched in ENR+CD, down = enriched in ENR, FDR<0.05 and log fold change cut-off.

B1: Q6PCN3 (protein, UniProt Q6PCN3 1-1308, looked up)
chain: MQCLAAALKDETNMSGGGEQADILPANYVVKDRWKVLKKIGGGGFGEIYEAMDLLTRENVALKVESAQQPKQVLKMEVAVLKKLQGKDHVCRFIGCGRNEKFNYVVMQLQGRNLADLRRSQPRGTFTLSTTLRLGKQILESIEAIHSVGFLHRDIKPSNFAMGRLPSTYRKCYMLDFGLARQYTNTTGDVRPPRNVAGFRGTVRYASVNAHKNREMGRHDDLWSLFYMLVEFAVGQLPWRKIKDKEQVGMIKEKYEHRMLLKHMPSEFHLFLDHIASLDYFTKPDYQLIMSVFENSMKERGIAENEAFDWEKAGTDALLSTSTSTPPQQNTRQTAAMFGVVNVTPVPGDLLRENTEDVLQGEHLSDQENAPPILPGRPPEGLGPGPHLVPHPGGPEAEVWEETDVNRNKLRINIGKTPCVEEEQSRGVGVPSSPVRAPPDSPTTPVRSLCYRRVNSPESERLSTAADGRVELQERRSRMDLPGSPSRQACSSQPAQMLSVDTGHADRQASGRMDVSASVEQEALSNAFRSVPLAEEEDFDSKEWVIIDKETELKDFPPGAEPSTSGTTDEEPEELRPLPEEGEERRRLGTEPTVRPRGRGMHTLTEEDPRQMLPQPAPPQLSQADGRSETSQPPTPGSPSHSPLHSGPRPRRRESDPTGPQRQVFSVAPPFEVNGLPRAVPLALPYQDFKRDLSDYRERARLLNRVRRVGFSHMLLTAPQVPLAPFQPQANGKEGEEEEEEEEEEEEEEEEEEEEEEEEEEEEEEEEEAGALGEVLGPRSGSSSEGSERSTERSQEGAPSTLLADDQKEARGRASMADGDLEPEEGSKTLVLVSPGDMKKSPVTAELAPDPDLGTLAALTPQHERPQPTGSQLDVSEPGTLSSILKSEPKPSGPGAGGGVGLVAPGAGVTAVTSPFTKVERTFVHIAEKSHLNVMSSGGQASRPEELSTGGELGLEVLSEGGIAEEGAPAPLENGMALAGLDGTEMESCALSGPPGETPSEVVTDSLPNGPALADGPAPASQQEPVTKKGTTISPSRHAMPGSRPRSRIPVLLSEEDTGSEPSGSLSAKERWSKRARPQQDLARLVMEKRQGRLLLRLASGASSSSSEEQRRASETLSGTGSEEDTPASEPTTALPRKAVRAATTRSRIPRPISVSMPVEGQQLPGRPHGAASATDLAITSRLQLQKPSGLAPAADLRPKQSASRGPGPGRAQVSKPAAPRSPGLPASTARHPSGSPRSQSLSRKESSSPSHQARPGVPPSRGVLQVRSQPEASPVAPKKGPKGKQLQTQRAATKGRAVVSEGRPGAR
modifications: full-length
On to B1, for which the “Average logFC” value was 1.301, the “M1-1 Log2 Median Normalized” value amounted to 0.917, the “M1-2 Log2 Median Normalized” value worked out at 1.005 and the “M2-1 Log2 Median Normalized” value stood at 1.5695. Moreover, the “M2-2 Log2 Median Normalized” value is reported as 1.711 and the change result was “up”.

B2: Q6UQ17 (protein, UniProt Q6UQ17 1-1335, looked up)
chain: MDGVHLGENLEDKDTEFTWEVKANDRTYHKQFKKKGFLCWRQKKYKSNAIHTAKYNIFSFLPLNLYEQFHRMSNLYFLFIIILQGIPEISTLPWFTLFAPLVCLFVIRATRDLVDDIGRHRSDKIINNRPCQILRGKSFLWKKWKNLCVGDVVCLSKDSIVPADLLLLASTEPSSLCYVETADIDGETNLKFRQALTVTHHELTSPKKMASFQGTVTCEEPNSRMHHFVGSLEWNSRKYPLDIGNLLLRGCKIRNTDTCYGLVIYAGLDTKIMKNCGKIHLKRTKLDLMMNKLVALIFLSLVIASLLLTVGFTFMVKQFKAKHYYMSPTHGRSDAMESFFIFWGFLILLSVMVPMAMFIIAEFIYLGNSIFINWDLNMYYEPLDMPAKARSTSLNDQLGQVQYIFSDKTGTLTQNIMTFKKCCINGCIYDSDDEHGTLRKRNPYAWNPFADGKLQFYNKELESLVQGRQDRAVQEFWRLLAICHTVMVQEKDNQLLYQAASPDEEALVTAARNFGYVFLSRTQDTITLVELGEERVYQVLAMMDFNSVRKRMSVLVRNPEGSICLYTKGADTVILERLRSKGVMEATTEEVLAAFAEQTLRTLCLAYKDVEEDAYKEWEPEHQEAALLLQNRAQALHQVYNKMEQNLQLLGATAIEDKLQDGVPETIKCLKKGNIKIWVLTGDKPETAVNIGFACQLLSENMIILEDKDINQVLERYWEDNVHQKAFKMMTHHNMALVINGEFLDQLLLSLRKEPRALVQNAVVDEVAQEPVVSALDFLQKRRISQMWRNAGPSLGTSHSADSKIRESPEVQRERAFVDLASKCQAVICCRVTPKQKALVVALVKKYQQVVTLAIGDGANDVNMIKTADIGVGLAGQEGMQAVQNSDYVLAQFCYLQRLLLVHGRWSYMRVCKFLRYFFYKTVASMMAQIWFSLVNGFSAQPLYEGWFLALFNLLYSTLPVLYIGLFEQDVTAEKSLKMPELYMAGQKGELFNYSIFMQAITHGTITSMINFFVTVMVSSDMSKAGSSHDYQSLGVLVAISSLLSVTLEVMLVVKYWTLLFVGAVVLSLSSYVLMTSLTQSLWMYRISPKTFPFLFADYNVLFEPCSLLLIVLNVALNVLPMLALRTIHRTVLKQRPKGEEEAPSEEVAVEPAMRHLRRGIPARRSSYAFSHREGYANLITQGTILRRQTHVDDSDGGTVCESLNPPEEDIPLQNKDSVFNPRKISILAKKRRHFFGKGSQEEVHPNTSSQTMEKQPTIHRDSETQKLPTTTSATSGKLLPSASEDEAFYSVASQYTLASQPKHTDVHSSFWKSPLWRDSASSSPSQLEVPRKQS
modifications: full-length
Regarding B2, the “Average logFC” value came out at 1.464, the “M1-1 Log2 Median Normalized” value is on record as 1.126, the “M1-2 Log2 Median Normalized” value worked out at 1.134 and the “M2-1 Log2 Median Normalized” value was 1.7555. In addition, the “M2-2 Log2 Median Normalized” value worked out at 1.841 and the change entry is on record as “up”.

B3: Q768S4 (protein, UniProt Q768S4 1-302, looked up)
chain: MADTIFSSGNDQWVCPNDRQLALRAKLQTGWSVHTYQTEKQRRSQCLSPGELEIILQVIQRAERLDILEQQRIGRLVERLETMQRNVMGNGLSQCLLCGEVLGFLGSSSVFCKDCRKKVCTKCGIEASPGQKRPLWLCKICSEQREVWKRSGAWFYKGLPKYILPLKTPGRADDPHFRPLPVEPTETQPPSAETSRVYTWARGRVVSSDSDSDSDLSSSSLEDRPLPSGVKGTKGDKPRGDSGASMESPRLGPARPPSHLSGSQSSLGSEAGTGATEPQGGTPAQPEPRVPGKRHTWATPRY
modifications: full-length
In the case of B3, the “Average logFC” value is reported as 1.363, the “M1-1 Log2 Median Normalized” value was found to be 1.2, the “M1-2 Log2 Median Normalized” value was 0.548 and the “M2-1 Log2 Median Normalized” value is given as 1.8455. For the same molecule, the “M2-2 Log2 Median Normalized” value stood at 1.859 and the change entry is on record as “up”.

B4: Q6ZQL4 (protein, UniProt Q6ZQL4 1-677, looked up)
chain: MAAGGGGSYDPLAPAGVPCAFSPDSQAYFALASSDGQLRVWETANNRLHQEYVPSAHLSGTCTCLAWAPARLQAKESHQRKKRKSEVTGTKDQADLLALGTAVGSILLYSTVRGELHSKLTSGGHENRVNCIQWHQDNDCLYSCSDDKYIVEWSTQTCKVKCKWKGDNSSVSSLCISPDGKMLLSAGRTIKLWVLETKEVYRHFTGHATPVSSLRFTTIRPNESQPSDGITGLYFLSGAVHDRLLNVWQVRSENKEKSAVMSFTVTDEPVYVDLTLSENKEEPVKLAVVCRDGQVHLFEHILNGHCKKPLTSNCTIQIATPGKGKKVTPKPIPILAASFCLDKMSLLLVYGNWFQPTIERVALNSKDTHICLERDISNCWAPTVETAITKVKTPVMNSEAKVLVPGIPGHHAPIKLPPAQPKEAENKRKLGSTEATIEERLGAMDLDRKGRKDDLQTNSFAVLLTQGLESNDFEILNKVLQTKNVNLIKRTVLRIPLRVVIPLLQELTKRLQGHPNSAALMIQWLKCVLTIHASYLSTLPDLVEQLGTLYQLMESRVKTFQKLSNLHGKLILLVTQVTASEKSKKMTSPGQKAKLVYEEESSEEESDDEVPEKDSDDNWDEDEDKDSEKDEGVDEDNEEEDEDMEDKEENEEDREVSSEKELNGDSDLDPENESEEE
modifications: full-length
For B4, the “Average logFC” value was −1.143, the “M1-1 Log2 Median Normalized” value is reported as −1.562, the “M1-2 Log2 Median Normalized” value is recorded as −0.715 and the “M2-1 Log2 Median Normalized” value is −0.9435. Moreover, the “M2-2 Log2 Median Normalized” value was −1.351 and the change entry is given as “down”.
